From US20220275069

Tested on: T1, Recombinant gasdermin D (rGSDMD), full-length
T1 sequence: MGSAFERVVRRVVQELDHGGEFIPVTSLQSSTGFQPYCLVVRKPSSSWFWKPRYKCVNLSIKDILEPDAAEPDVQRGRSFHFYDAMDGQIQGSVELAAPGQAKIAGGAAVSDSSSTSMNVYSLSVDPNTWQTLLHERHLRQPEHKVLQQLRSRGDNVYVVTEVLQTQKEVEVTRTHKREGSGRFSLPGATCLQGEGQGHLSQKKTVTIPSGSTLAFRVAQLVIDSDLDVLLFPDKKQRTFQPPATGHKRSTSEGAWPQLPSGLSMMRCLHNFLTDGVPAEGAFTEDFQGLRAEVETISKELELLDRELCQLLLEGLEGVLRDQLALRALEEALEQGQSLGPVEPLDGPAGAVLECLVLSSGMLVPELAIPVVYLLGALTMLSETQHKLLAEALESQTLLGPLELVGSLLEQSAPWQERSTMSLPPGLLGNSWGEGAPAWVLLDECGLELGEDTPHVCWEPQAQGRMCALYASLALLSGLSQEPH

Substance: Recombinant caspase-1
- cleavage of recombinant gasdermin D (1 hour at 37 C, SDS-PAGE and protein stain): resulted in the formation of a ~31 kDa N-terminal domain and ~22 kDa C-terminal domain
